Test results taken from the nanobody polyreactivity screen of Harvey et al. (2022).

Assay: yeast display, Sf9 membrane polyspecificity reagent, FACS + sequencing; frameworks hold sequencing errors
Method in brief: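 Synthetic nanobody libraries on Saccharomyces cerevisiae BJ5465 were galactose-induced for 36–48 hours, stained 1 hour at 4 °C with 10% biotinylated, detergent-solubilized Sf9 membrane reagent and enriched on streptavidin microbeads. FACS then separated cells into low and high (top ~1%) gates by anti-HA (expression) and streptavidin (reagent binding) fluorescence. Genes were colony-PCR amplified, MiSeq 2 × 250 sequenced and CDR-length filtered. A clone's polyreactivity label is that of its gate of origin.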
In the case of “QVQLVESGGGLVQAGGSLRLRCAASGRTFAVYAMGWYRQAPGKERELVAAITLGASRSYYADSVKGRFTISRDNAKNTVYLHMNSLKPEDTAVYYCNAVGRRNVVSSLNDYWGQGTQVTVSS”, the “polyreactivity (PSR sort gate)” value is reported as “low polyreactivity”.
For “QVQLVESGGGLVKAGGSLRLSCAASGSMFWSYAMGWYRQAPGKERELVAAISSGGSTNYADTVKGRFTISRDNAKNTVYLQMNSLKPEDTAVYYCSARFYTTCVRRKRYDYWGQGTQVNVSS”, the “polyreactivity (PSR sort gate)” value was “high polyreactivity”.
With “QVQLVESGGGLVQAGGSLRLSCAASGSIFSKYVMGWYRQAPGKERELVAAISWSGTRTYYADSVKGRFTISRDNAKNTVYLQMNSLKPEDTAVYYCAARRPVRVPGQYDYWGQGTQVTVSS” the “polyreactivity (PSR sort gate)” value was “high polyreactivity”.
In the case of “QVQLVESGGGLVQAGGSLRLSCAASGFTFTAYDMGWYRQAPGKERELVAAISGSGGTTYYADSVKGRFTISRDNAKNTVYLQMNSLKPEDTAVYYCAVDVPSPGGYDSWGQGTQVTVSS”, the “polyreactivity (PSR sort gate)” value is reported as “low polyreactivity”.
In the case of “QVQLVESGGGLVQAGGSLRLRCAASGSTFSIYAMGWYRQATGKQRELVAAISSSGGSTYYADSVKGRFTISRDTAKNTGYLQMNSLKPEDTAFYYCNKRKYHVRYDYWGQGTQVTVSS”, the “polyreactivity (PSR sort gate)” value is reported as “low polyreactivity”.
With “QVQLVESGGGLVQAGGSLGLSCAASGSTFAEYAMGWYRQAPGKERELVAVISFGDGNTYYADSVKGRVTISRDNAKNTVYLQMNSLKPEDTAVYYCNAADDSVDQSVRTLRQYEYWGQGTQVTVSS” the “polyreactivity (PSR sort gate)” value was “low polyreactivity”.
For “QVQLVESGGGLVQAGGSLRLSCAASGSIFGTNAMGWYRQAPGKERELVAAINSGGSTNYADSVKGRFTISRDNAKNTVYLQMNSLKPEDTAVYYCAADEGLWSPSRNAYDYDYWGQGTQVSVSS”, the “polyreactivity (PSR sort gate)” value was “low polyreactivity”.
In the case of “QVQLVESGGGLVQAGGSLRLSCAASGSILIPNAMGWYRQAPGKERELVASISKSGGSTYYADSVKGRFTISRDNAKNTVYLPKNSLKPEDTAVYYCAAAFVSVRKRYGYWGQGTQVTVSS”, the “polyreactivity (PSR sort gate)” value is reported as “high polyreactivity”.
With “QVQLVESGGGLVQAGGSLRLSCAAYGRIFKYYVMGWYRPAPGKERELVATISSGSGTNYADSVKGRFTISRDNAKNTVYLQMNSLKPEDTAVYYCAARWTPRVRGYNYWGQGTLVTVSS” the “polyreactivity (PSR sort gate)” value was “high polyreactivity”.
With “QVQLVESGVGLVQAGGSLRLSCASSGLTLNQYAIGWYRQAPGKERELVAAITRGGGSTYYADSVKGRFTISRDNAKYTVYLQMNSLKPEDTAVYYCATDNWWPTYHYQGGYYWGQGTQVTVSS” the “polyreactivity (PSR sort gate)” value was “low polyreactivity”.
For “QVHLVESGGGVVQAGGSLRLSCAASGRIFPSYDRGWYRQAPGKERELVATISSRGDSTYYADSVKGRFTISRDNAKNTVYLQMNSLKPEDTAVYYCAAERPFWEYDYWGQGTQVTVSS”, the “polyreactivity (PSR sort gate)” value was “low polyreactivity”.
With “QVQLVESGGGLVQAGGSLRLSCAASGSIFPGYSMGWCRQAPGKERELVAAISISGGDTYYADSVKGRFTISRDNAKNTGYFQMNSLKPEDTSVYHCNKEDDDREWFEYYWWYDYWGQGTQVTVTS” the “polyreactivity (PSR sort gate)” value was “high polyreactivity”.
For “QVQLVESGVGLVQAGGRLRLSCAASGSTFLRYAMGWYRPAPGKERELVAAISYSGGSTYYADSVKGRFTISRDNAKNTVYLQMNSLKPEDTAVYYCNAGVFANDNGGRRDQFTWEYEYWGQGTQVTVSS”, the “polyreactivity (PSR sort gate)” value was “low polyreactivity”.
With “QVQLVESGGGLVQAGCSLRLSCAASGRTFRYYAMGWYRQAPGKERELVAAISWRGGSTYYADSVKGRFTISRDNAKNTVYLQMNSLKPEDTAVYYCAAGILFGHYDYWGQGTQVTVSS” the “polyreactivity (PSR sort gate)” value was “high polyreactivity”.
With “QVQLVESGGGVVQAGRSLRLSCAASGSPFAYNSMGWYRKAPGKERELVAAISWRGTRTYYADSVKGRFTISRDTAKNTVNLQMNSLKPEDTAVYYCATKYGISYDYWGQGTHVTVSS” the “polyreactivity (PSR sort gate)” value was “high polyreactivity”.
With “QVQLVESRGGLVQAGGSLRLSCAASGLTFLYNAMGWYRQAPGKERELVAAISQSAGSTYYADSVKGRFTISRDNAKNTVYLQMNSLKPEDTAVYYCAAEWDTPDLVIYDYWGQGTQVTVSS” the “polyreactivity (PSR sort gate)” value was “low polyreactivity”.
